The supplement of paper PMC7877785
± gives the uncertainty stated by the source.

Assay: self-splicing fitness, log relative to wild type (ln ratio); higher = more splicing; Tetrahymena group I intron in knt gene, E. coli kanamycin selection, DiMSum; sequences stand for … in CUCUCU…GGAGGGAAAAGUUAUCAGGCAUGCACCUGGUAGCUAGUCUUUAAACCAAUAGAUUGCAUCGGUUUAAAAGGCAAGACCGUCAAAUUGCGGGAAAGGGGUCAACAGCCGUUCAGUACCAAGUCUCAGGGGAAACUUUGAGAUGGCCUUGCAAAGGGUAUGGUAAUAAGCUGACGGACAUGGUCCUAACCACGCAGCCAAGUCCUAAGUCAACAGAUCUUCUGUUGAUAUGGAUGCAGUUCACAGACUAAAUGUCGGUCGGGGAAGAUGUAUUCUUCUCAUAAGAUAUAGUCGGACCUCUCCUUAAUGGGAGCUAGCGGAUGAAGUGAUGCAACACUGGAGCCGCUGGGAACUAAUUUGUAUGCGAAAGUAUAUUGAUUAGUUUUGGAGUACUCGUGGUCG
In short: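 Pooled colonies went to amplicon sequencing on an Illumina HiSeq 2500 after six replicate transformations. The plates were LB agar with 100 μg/mL carbenicillin, 50 μM IPTG and 0.2% rhamnose, with or without 25 μg/mL kanamycin, incubated overnight at 37°C or 30°C. The E. coli BL21(DE3) library had all eight P1ex-region intron nucleotides randomised, the intron placed in the knt kanamycin-resistance gene on pET-22b(+). DiMSum fitness is the error-weighted combination of replicate fold changes, kanamycin against none, normalised to wild type.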

Sequence | self-splicing fitness (ln) (30 °C) | self-splicing fitness (ln) (37 °C)
AGCAAGCAAUAUUACGGGUU | -1.67 ± 0.1 | -2.17 ± 0.14
AGCAAGCAAUAUUACGGUGC | -1.6 ± 0.11 | -3.4 ± 0.22
AGCAAGCAAUAUUACGUCUU | -1.38 ± 0.068 | -0.234 ± 0.074
AGCAAGCAAUAUUACGUGAC | -2.49 ± 0.2 | -1.85 ± 0.27
AGCAAGCAAUAUUACGUUGU | -3.33 ± 0.12 | -2.87 ± 0.14
AGCCAGCAAUAUUACGAAUA | -3.25 ± 0.27 | -2.94 ± 0.3
AGCCAGCAAUAUUACGACAA | -3.47 ± 0.23 | -3.18 ± 0.2
AGCCAGCAAUAUUACGAGCA | -0.932 ± 0.11 | 0.49 ± 0.14
AGCCAGCAAUAUUACGAUCG | -3.74 ± 0.26 | -1.69 ± 0.15
AGCCAGCAAUAUUACGAUGC | -3.79 ± 0.47 | -0.986 ± 0.2
AGCCAGCAAUAUUACGAUUA | -2.22 ± 0.27 | -2.48 ± 0.28
AGCCAGCAAUAUUACGCAUC | -3.75 ± 0.2 | -3.03 ± 0.17
AGCCAGCAAUAUUACGCGUG | -1.91 ± 0.089 | -1.35 ± 0.092
AGCCAGCAAUAUUACGCUAG | -2.97 ± 0.25 | -2.81 ± 0.25
AGCCAGCAAUAUUACGGAUU | -2.85 ± 0.1 | -0.534 ± 0.093
AGCCAGCAAUAUUACGGCGU | -1.61 ± 0.09 | -1.44 ± 0.12
AGCCAGCAAUAUUACGGCUC | -2.52 ± 0.18 | -3.14 ± 0.31
AGCCAGCAAUAUUACGGGAC | -2.67 ± 0.22 | -2.7 ± 0.27
AGCCAGCAAUAUUACGGGCC | -2.77 ± 0.2 | -3.49 ± 0.46
AGCCAGCAAUAUUACGUAUA | -3.4 ± 0.14 | -2.69 ± 0.17
AGCCAGCAAUAUUACGUAUU | -3.72 ± 0.13 | -2.05 ± 0.12
AGCCAGCAAUAUUACGUCCA | -2.69 ± 0.18 | -1.99 ± 0.2
AGCCAGCAAUAUUACGUGAA | -3.14 ± 0.091 | -1.81 ± 0.1
AGCCAGCAAUAUUACGUGUC | -3.17 ± 0.12 | -0.932 ± 0.083
AGCCAGCAAUAUUACGUUGU | -3.58 ± 0.21 | -2.01 ± 0.15

Sequence | self-splicing fitness (ln) (30 °C) | self-splicing fitness (ln) (37 °C)
AGCGAGCAAUAUUACGACAG |  | -2.08 ± 0.4
AGCGAGCAAUAUUACGACCU | -0.933 ± 0.15 | -0.654 ± 0.15
AGCGAGCAAUAUUACGAUCA | -1.94 ± 0.26 | -2.08 ± 0.37
AGCGAGCAAUAUUACGAUCG | -1.79 ± 0.25 | -1.63 ± 0.3
AGCGAGCAAUAUUACGAUUU | -1.4 ± 0.1 | -0.548 ± 0.14
AGCGAGCAAUAUUACGCCCG |  | -0.109 ± 0.42
AGCGAGCAAUAUUACGCCGG | -3.03 ± 0.27 | -2.44 ± 0.5
AGCGAGCAAUAUUACGGAGC |  | -2.92 ± 0.4
AGCGAGCAAUAUUACGGAGG | -3.59 ± 0.47 | -1.53 ± 0.33
AGCGAGCAAUAUUACGGAUA | -2.18 ± 0.39 | -2.17 ± 0.34
AGCGAGCAAUAUUACGGCCA | -1.8 ± 0.099 | -1.27 ± 0.078
AGCGAGCAAUAUUACGGCCC | -1.03 ± 0.28 | -0.383 ± 0.24
AGCGAGCAAUAUUACGGGAC |  | -2.99 ± 0.38
AGCGAGCAAUAUUACGGUUA | -1.22 ± 0.12 | -1.9 ± 0.11
AGCGAGCAAUAUUACGUCAA | -2.95 ± 0.48 | -0.741 ± 0.22
AGCGAGCAAUAUUACGUUAU | -3.81 ± 0.36 | -0.895 ± 0.16
AGCUAGCAAUAUUACGACGG | -1.66 ± 0.23 | -1.43 ± 0.42
AGCUAGCAAUAUUACGACUA | -0.935 ± 0.14 | -0.86 ± 0.13
AGCUAGCAAUAUUACGCAGC |  | -0.17 ± 0.24
AGCUAGCAAUAUUACGCAGG | -3.49 ± 0.22 | -3.93 ± 0.33
AGCUAGCAAUAUUACGCGAG | -2.38 ± 0.22 | -3.12 ± 0.32
AGCUAGCAAUAUUACGCGUC | -4.28 ± 0.36 | -2.08 ± 0.23
AGCUAGCAAUAUUACGCUGU | -2.86 ± 0.2 | -3.07 ± 0.32
AGCUAGCAAUAUUACGGCUC | -3.32 ± 0.37 | -3.06 ± 0.43
